Measurements: patent US20230250181A1 (published 2023)

B1: Pembrolizumab (antibody, human IgG4 S228P, kappa)
heavy: not shown
light: EIVLTQSPATLSLSPGERATLSCRASKGVSTSGYSYLHWYQQKPGQAPRLLIYLASYLESGVPARFSGSGSGTDFTLTISSLEPEDFAVYYCQHSRDLPLTFGGGTKVEIKRTVAAPSVFIFPPSDEQLKSGTASVVCLLNNFYPREAKVQWKVDNALQSGNSQESVTEQDSKDSTYSLSSTLTLSKADYEKHKVYACEVTHQGLSSPVTKSFNRGEC
notes: also called Lambrolizumab
B2: Composition K (antibody)
VH: QVQLVQSGAEVKKPGASVKVSCKASGYTFTSYYMYWVRQAPGQGLEWMGGVNPSNGGTNFNEKFKSRVTITADKSTSTAYMELSSLRSEDTAVYYCARRDYRYDMGFDYWGQGTTVTVSS
VL: EIVLTQSPATLSLSPGERATISCRASKGVSTSGYSYLHWYQQKPGQAPRLLIYLASYLESGVPARFSGSGSGTDFTLTISSLEPEDFATYYCQHSRELPLTFGTGTKVEIK
chain: APTSSSTKKTQLQLEHLLLDLQXILNGINNYKNPKLTRXLXYKFYXPKKATELKHLQCLEEELKPLEEVLXLAQSKNFHLRPRDLISNINVIVLELKGSETTFXCEYADETATIVEFLNRWITFSQSIISTLT
modifications: not fully specified; Composition AB: Nle at 23, 39, 46; Hse at 41, 71, 104; ~0.5 kDa PEG on Y45; 0.5 kDa PEG capped with azide on F42Y, reacted with DBCO on K288 (EU numbering) of the antibody's Fc region
notes: Immunocytokine; linker at K288 of the Fc region
B3: Composition J (antibody)
VH: B2 VH
VL: B2 VL
chain: B2 chain
modifications: not fully specified; Composition AB: Nle at 23, 39, 46; Hse at 41, 71, 104; ~0.5 kDa PEG on Y45; 0.5 kDa PEG capped with azide on F42Y, reacted with DBCO on K288 (EU numbering) of the antibody's Fc region
notes: Immunocytokine; linker at K288 of the Fc region, DAR 1; also called LZM-009 conjugated to Composition AB, DAR 1, K288
B4: Composition H (antibody)
VH: B2 VH
VL: B2 VL
chain: B2 chain
modifications: not fully specified; Composition AB: Nle at 23, 39, 46; Hse at 41, 71, 104; ~0.5 kDa PEG on Y45; 0.5 kDa PEG capped with azide on F42Y, reacted with DBCO on K248 (EU numbering) of the antibody's Fc region
notes: Immunocytokine; linker at K248 of the Fc region, DAR 1; also called LZM-009 conjugated to Composition AB, DAR 1, K248
B5: LZM-009 (antibody, V domains shown)
VH: B2 VH
VL: B2 VL

Legend:
[1] = biological target: T1, recombinant Human Fc gamma RI/CD64 Protein (R&D systems, 1257-FC-050, CF) (human, UniProt P12314 16-288); assay: ELISA; antibody coated on plate, recombinant receptor titrated
T1 construct: Bought protein; also called FcγRI; FcgRI
Procedure: (§1) The interaction of the unmodified and of conjugated anti-PD1 antibodies with human Fc gamma receptors I (FcγRI/CD64), with human Fc gamma receptors Ha (FcγRIIa/CD32a), with inhibitory human Fc gamma receptors IIb (FcγRIIb/CD32b), and with human Fc gamma receptors III FcγR3a/CD16 were measured by ELISA. Briefly, Corning high-binding half-area plates (Fisher Scientific, Reinach, Switzerland) were coated overnight at 4° C. with 25 μl of unmodified and of conjugated anti-PD1 antibodies at 2.5 μg/ml in PBS. Plates were then washed four times with 100 μl of PBS-0.02% Tween20. Plates surfaces were blocked with 25 μl of PBS-0.02% Tween20-1% BSA at 37° C. during 1 h. Plates were then washed four times with 100 μl of PBS-0.02% Tween20. Then twenty-five microliters of either recombinant Human Fc gamma RI/CD64 Protein (R&D systems, 1257-FC-050, CF), recombinant Human Fc gamma RIIA/CD32a (H167) Protein (R&D systems, 9595-CD-050, CF), recombinant Human Fc gamma RIIB/CD32b Avi-tag Protein (R&D systems, AVI1875-050, CF), or recombinant Human Fc gamma RIIIA/CD16a Protein (R&D systems, 4325-FC-050; CF) were added in five-fold serial dilutions ranging from 1000 nM to 0.001 nM into PBS-0.02% Tween20-0.1% BSA and incubated at 37° C. during 2 h. […] ELISA signal was then measured at 450 nm on an EnSpire plate reader from Perkin Elmer (Schwerzenbach, Switzerland). […]

[2] = biological target: T2, recombinant Human Fc gamma RIIIA/CD16a Protein (R&D systems, 4325-FC-050; CF) (human, UniProt P08637 17-208, limits assumed); assay: as above
T2 construct: Bought protein; also called FcγRIIIa; FcgRIIIa
Procedure: as §1

[3] = biological target: T3, recombinant biotinylated human FcRn (human, UniProt P55899 24-297, limits assumed, biotinylated); assay: AlphaLISA competition at pH 6; test molecule competes with human IgG acceptor beads for biotinylated human FcRn
T3 construct: also called human neonatal Fc receptor
Procedure: The interaction of the unmodified and of conjugated anti-PD1 antibodies with the human neonatal Fc receptor (FcRn) at pH 6 was measured using the AlphaLISA® Human FcRn Binding Kit (AL3095C) from Perkin Elmer (Schwerzenbach, Switzerland).
After 90 min at 23° C. in the dark, AlphaLISA® signal was measured on an EnSpire plate reader (Excitation at 680 nm, Emission at 615 nm) from Perkin Elmer (Schwerzenbach, Switzerland).

[4] = biological target: T4, recombinant biotinylated PD1/CD279 protein from Biolegend (789406) (UniProt Q15116 25-167, limits assumed, biotinylated); assay: ELISA; antibody coated on plate, biotinylated PD-1 titrated, streptavidin-HRP
T4 construct: also called PD1/CD279 ligand
Procedure: The interaction of the unmodified and of conjugated anti-PD1 antibodies with PD-1 (CD279) were measured by ELISA assay. For these studies, Corning high-binding half-area plates (Fisher Scientific, Reinach, Switzerland) were coated overnight at 4° C. with 25 μl of unmodified or conjugated anti-PD1 antibodies at 2.5 μg/ml in PBS. Plates were then washed four times with 100 μl of PBS-0.02% Tween20. Plate surfaces were blocked with 25 μl of PBS-0.02% Tween20-1% BSA at 37° C. during 1 h. Plates were then washed four times with 100 μl of PBS-0.02% Tween20. […] Plates were then washed four times with 100 μl of PBS-0.02% Tween20. Twenty-five microliters of Streptavidin-Horseradish peroxidase (#RABHRP3, Merck, Buchs, Switzerland) diluted at 1:500 in PBS-0.02% Tween20-0.1% BSA were added to each well and incubated at Room Temperature during 30 min. Plates were then washed four times with 100 μl of PBS-0.02% Tween20. Fifty microliters of TMB substrate reagent (#CL07, Merck, Buchs, Switzerland) were added to each well and incubated at 37° C. during 5 min. After 5 min at 37° C., Horseradish peroxidase reaction was stopped by adding 50 μl/well of 0.5M H₂SO₄ stop solution. ELISA signal was then measured at 450 nm on an EnSpire plate reader from Perkin Elmer (Schwerzenbach, Switzerland).

T4 sequence (Q15116 25-167 limits assumed): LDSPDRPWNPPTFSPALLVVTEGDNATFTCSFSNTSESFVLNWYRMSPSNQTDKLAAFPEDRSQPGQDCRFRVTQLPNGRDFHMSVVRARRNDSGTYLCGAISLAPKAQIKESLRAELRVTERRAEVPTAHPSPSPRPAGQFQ
T1 sequence (P12314 16-288 limits assumed): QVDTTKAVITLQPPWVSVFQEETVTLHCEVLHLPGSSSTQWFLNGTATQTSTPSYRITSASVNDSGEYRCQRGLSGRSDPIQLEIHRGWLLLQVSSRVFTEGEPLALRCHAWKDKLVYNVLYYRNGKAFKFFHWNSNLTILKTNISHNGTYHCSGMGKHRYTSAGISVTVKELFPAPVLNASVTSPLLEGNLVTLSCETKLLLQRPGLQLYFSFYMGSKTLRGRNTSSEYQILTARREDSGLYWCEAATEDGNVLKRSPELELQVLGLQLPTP
T3 sequence (P55899 24-297 limits assumed, form in doubt): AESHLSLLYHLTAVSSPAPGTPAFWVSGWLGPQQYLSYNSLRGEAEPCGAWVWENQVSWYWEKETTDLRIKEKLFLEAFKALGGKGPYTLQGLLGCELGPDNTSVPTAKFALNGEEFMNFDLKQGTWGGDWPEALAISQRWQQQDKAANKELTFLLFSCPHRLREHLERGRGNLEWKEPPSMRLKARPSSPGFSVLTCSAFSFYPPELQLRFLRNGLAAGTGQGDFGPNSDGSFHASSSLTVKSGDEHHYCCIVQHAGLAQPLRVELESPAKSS
T2 sequence (P08637 17-208 limits assumed): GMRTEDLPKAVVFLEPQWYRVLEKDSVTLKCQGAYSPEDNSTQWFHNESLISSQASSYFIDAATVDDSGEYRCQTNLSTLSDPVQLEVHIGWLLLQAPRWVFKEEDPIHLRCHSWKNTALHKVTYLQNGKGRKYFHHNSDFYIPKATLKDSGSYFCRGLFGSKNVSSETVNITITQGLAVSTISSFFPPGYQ

Binder	Kd [1] [µM]	Kd [2] [µM]	Kd [3] [µM]	Kd [4] [µM]
B1	0.000488	0.289	0.00731	
B2				41
B3				27
B4				37
B5				35
